Experiment [1] concerns the target Axl (UniProt P30530). Nature of the experiment: ELISA, 1:3 dilution. A general note: An ELISA detects its analyte on a solid surface through an enzyme-linked reagent.
The target in experiment [2] is Axl (UniProt P30530). Nature of the experiment: ELISA, 1:9 dilution.
Experiment [3] addresses T1, Axl (Homo sapiens, UniProt P30530).
T1 sequence (P30530 26-451 limits assumed): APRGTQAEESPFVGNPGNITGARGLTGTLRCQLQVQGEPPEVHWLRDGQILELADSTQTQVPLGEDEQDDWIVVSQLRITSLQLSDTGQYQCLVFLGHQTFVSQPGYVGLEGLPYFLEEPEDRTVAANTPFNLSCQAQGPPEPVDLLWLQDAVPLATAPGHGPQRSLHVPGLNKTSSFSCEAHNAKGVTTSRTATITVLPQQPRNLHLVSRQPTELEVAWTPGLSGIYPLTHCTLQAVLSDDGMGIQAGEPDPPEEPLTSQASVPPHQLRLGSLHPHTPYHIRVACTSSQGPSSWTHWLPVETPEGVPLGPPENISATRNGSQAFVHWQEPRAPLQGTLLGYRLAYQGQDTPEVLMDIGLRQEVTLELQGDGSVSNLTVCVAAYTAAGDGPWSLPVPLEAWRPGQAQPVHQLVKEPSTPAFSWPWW
Nature of the experiment: Affinity ELISA of CPE mutant antibodies for binding to Axl at pH 6.0 over pH 7.4. The following applies: for Affinity ELISA CPE mutant ratio (1:3, pH 6.0/7.4): 1:3 dilution; for Affinity ELISA CPE mutant ratio (1:9, pH 6.0/7.4): 1:9 dilution. The source says: The DNA encoding the wild-type antibody was evolved to generate a mutant antibody library using Comprehensive Positional Evolution (CPE), which each position in the template antibody is randomized one at a time. Each mutant antibody in the library has only one single point mutation. The mutant antibodies in the library were generated by simultaneously screening for selective binding affinity to Axl at pH 6.0 over pH 7.4 by ELISA. Two mutant antibody dilutions were used: 1:3 and 1:9 dilutions. The mutant antibodies that have at least 1.5 ratio of binding affinity at pH 6.0 to at pH 7.4 under either 1:3 or 1:9 dilution are selected as conditionally active antibodies, with the single point mutations indicated in each of the heavy chain and light chain variable region (Tables 1 and 2).
A wild-type antibody to Axl was selected as the template antibody (with a heavy chain variable region of 063-hum10F10-HC in FIG. 1A and a light chain variable region of […]). The DNA encoding the wild-type antibody was evolved to generate a mutant antibody library using Comprehensive Positional Evolution (CPE), a method by which each position in the template antibody is randomized one at a time. Each mutant antibody in the library has only one single point mutation. The mutant antibodies in the library were generated by simultaneously screening for selective binding affinity to Axl at pH 6.0 over pH 7.4 as determined by ELISA.
Simultaneously, the expression level of the mutant antibodies was also optimized for the purpose of higher fields in a manufacturing process. The screening was done in serum using a FLAG tag because there were human antibodies in the serum which might cause false positives for the screening. The screening buffer was a carbonate buffer (Krebs buffer with ringer-standard buffer but different from PBS). […] Some of the selected mutant antibodies (scFv) were represented in FIG. 2 with their higher activity at pH 6.0 than at pH 7.4, while their activity ratios between pH 6.0 to pH 7.4 were at least 11 fold (FIG. 3).

Setting [4] is: heavy chain variable region mutants.
Where [5] appears, read: light chain variable region mutants.

B1: HC-T030A (antibody, V domains shown)
VH: EVQLVQSGAEVKKPGATVKISCKVSGYSFAGHTMNWIRQPPGKGLEWIGLIKPSNGGTSYNQKFKGRVTISADKSISTAYLQWSSLKASDTAMYYCAHGHYESYFAMDYWGQGTLVTVSS
VL: DIQMTQSPSSLSASVGDRVTITCKASQDVSSAVAWYQQKPGQAPRLLIYWASTRHTGVPSRFSGSGSGTEFTLTISSLQPDDFATYYCQEHFSTPLTFGQGTKVEIK
Take B1: the Affinity ELISA CPE mutant ratio (1:3, pH 6.0/7.4) with Axl [1] came out at 1.29; with Axl [3] (setting [4]), 1.292. Moreover, the Affinity ELISA CPE mutant ratio (1:9, pH 6.0/7.4) with Axl [2] was 1.76; in the experiment with Axl [3] (setting [4]) it was 1.762.

B2: HC-W110H (antibody, V domains shown)
VH: EVQLVQSGAEVKKPGATVKISCKVSGYSFTGHTMNWIRQPPGKGLEWIGLIKPSNGGTSYNQKFKGRVTISADKSISTAYLQWSSLKASDTAMYYCAHGHYESYFAMDYHGQGTLVTVSS
VL: DIQMTQSPSSLSASVGDRVTITCKASQDVSSAVAWYQQKPGQAPRLLIYWASTRHTGVPSRFSGSGSGTEFTLTISSLQPDDFATYYCQEHFSTPLTFGQGTKVEIK
As to B2, the results for the Affinity ELISA CPE mutant ratio (1:3, pH 6.0/7.4) in the experiment with Axl [1] and with Axl [3] (setting [4]) were 7.99 and 7.993, respectively. For the same molecule, the Affinity ELISA CPE mutant ratio (1:9, pH 6.0/7.4) with Axl [2] and in the experiment with Axl [3] (setting [4]) was 0.932 in each case.

B3: HC-N035I (antibody, V domains shown)
VH: EVQLVQSGAEVKKPGATVKISCKVSGYSFTGHTMIWIRQPPGKGLEWIGLIKPSNGGTSYNQKFKGRVTISADKSISTAYLQWSSLKASDTAMYYCAHGHYESYFAMDYWGQGTLVTVSS
VL: DIQMTQSPSSLSASVGDRVTITCKASQDVSSAVAWYQQKPGQAPRLLIYWASTRHTGVPSRFSGSGSGTEFTLTISSLQPDDFATYYCQEHFSTPLTFGQGTKVEIK
In the case of B3, the values for the Affinity ELISA CPE mutant ratio (1:3, pH 6.0/7.4) with Axl [1] and with Axl [3] (setting [4]) were 2.81 and 2.814, respectively. For the same molecule, the Affinity ELISA CPE mutant ratio (1:9, pH 6.0/7.4) with Axl [2] is 1.12; with Axl [3] (setting [4]) it was 1.121.

B4: LC-H091S (antibody, V domains shown)
VH: EVQLVQSGAEVKKPGATVKISCKVSGYSFTGHTMNWIRQPPGKGLEWIGLIKPSNGGTSYNQKFKGRVTISADKSISTAYLQWSSLKASDTAMYYCAHGHYESYFAMDYWGQGTLVTVSS
VL: DIQMTQSPSSLSASVGDRVTITCKASQDVSSAVAWYQQKPGQAPRLLIYWASTRHTGVPSRFSGSGSGTEFTLTISSLQPDDFATYYCQESFSTPLTFGQGTKVEIK
With B4, the Affinity ELISA CPE mutant ratio (1:3, pH 6.0/7.4) with Axl [1] came to 1.76; with Axl [3] (setting [5]) it was 1.758. Further, the Affinity ELISA CPE mutant ratio (1:9, pH 6.0/7.4) with Axl [2] is 1.34; with Axl [3] (setting [5]), 1.336.

B5: LC-V029D (antibody, V domains shown)
VH: EVQLVQSGAEVKKPGATVKISCKVSGYSFTGHTMNWIRQPPGKGLEWIGLIKPSNGGTSYNQKFKGRVTISADKSISTAYLQWSSLKASDTAMYYCAHGHYESYFAMDYWGQGTLVTVSS
VL: DIQMTQSPSSLSASVGDRVTITCKASQDDSSAVAWYQQKPGQAPRLLIYWASTRHTGVPSRFSGSGSGTEFTLTISSLQPDDFATYYCQEHFSTPLTFGQGTKVEIK
Consider B5, for which the Affinity ELISA CPE mutant ratio (1:3, pH 6.0/7.4) with Axl [1] was found to be 2.88; with Axl [3] (setting [5]), 2.882. Moreover, the Affinity ELISA CPE mutant ratio (1:9, pH 6.0/7.4) with Axl [2] turned out to be 2.68; with Axl [3] (setting [5]), 2.679.

B6: LC-V029G (antibody, V domains shown)
VH: EVQLVQSGAEVKKPGATVKISCKVSGYSFTGHTMNWIRQPPGKGLEWIGLIKPSNGGTSYNQKFKGRVTISADKSISTAYLQWSSLKASDTAMYYCAHGHYESYFAMDYWGQGTLVTVSS
VL: DIQMTQSPSSLSASVGDRVTITCKASQDGSSAVAWYQQKPGQAPRLLIYWASTRHTGVPSRFSGSGSGTEFTLTISSLQPDDFATYYCQEHFSTPLTFGQGTKVEIK
Take B6: the figures for the Affinity ELISA CPE mutant ratio (1:3, pH 6.0/7.4) in the experiment with Axl [1] and with Axl [3] (setting [5]) were 1.94 and 1.939, respectively. Besides, the Affinity ELISA CPE mutant ratio (1:9, pH 6.0/7.4) with Axl [2] is 1.8; with Axl [3] (setting [5]), 1.803.

Values taken from patent publication US20250276075A1, “METHODS OF TREATING AXL-EXPRESSING CANCERS WITH ANTI-AXL ANTIBODIES, ANTIBODY FRAGMENTS AND THEIR IMMUNOCONJUGATES” (BIOATLA, INC., priority 2020, published 2025).
